# According to the Human Domainome abundance scans (Beltran et al. 2025):
# ± gives the uncertainty stated by the source.
# B1: Zinc finger homeobox protein 4, residues 2183 to 2238; numbered along this chain, Q86UP3 (parent)
# chain: SSRTRFTDYQLRVLQDFFDTNAYPKDDEIEQLSTVLNLPTRVIVVWFQNARQKARK
# Variants of: B1
# Assay: abundance fitness (aPCA) (normalised: wild type 0, dead -1); higher = more abundant; growth selection in yeast, the domain comes from the species named
# Settings: Homo sapiens
row,Variant,abundance fitness
1,SSRTRFTDYQLRVLQMFFDTNAYPKDDEIEQLSTVLNLPTRVIVVWFQNARQKARK,-0.323 ± 0.12
2,SSRTRFTDYQLRVLQSFFDTNAYPKDDEIEQLSTVLNLPTRVIVVWFQNARQKARK,0.042 ± 0.097
3,SSRTRFTDYQLRVLQGFFDTNAYPKDDEIEQLSTVLNLPTRVIVVWFQNARQKARK,0.093 ± 0.084
4,SSRTRFTDYQLRVLQWFFDTNAYPKDDEIEQLSTVLNLPTRVIVVWFQNARQKARK,-0.838 ± 0.14
5,SSRTRFTDYQLRVLQVFFDTNAYPKDDEIEQLSTVLNLPTRVIVVWFQNARQKARK,-0.25 ± 0.086
6,SSRTRFTDYQLRVLQLFFDTNAYPKDDEIEQLSTVLNLPTRVIVVWFQNARQKARK,-0.602 ± 0.098
7,SSRTRFTDYQLRVLQFFFDTNAYPKDDEIEQLSTVLNLPTRVIVVWFQNARQKARK,-0.806 ± 0.25
8,SSRTRFTDYQLRVLQNFFDTNAYPKDDEIEQLSTVLNLPTRVIVVWFQNARQKARK,-0.034 ± 0.14
9,SSRTRFTDYQLRVLQRFFDTNAYPKDDEIEQLSTVLNLPTRVIVVWFQNARQKARK,-0.083 ± 0.088
10,SSRTRFTDYQLRVLQIFFDTNAYPKDDEIEQLSTVLNLPTRVIVVWFQNARQKARK,-0.644 ± 0.21
11,SSRTRFTDYQLRVLQTFFDTNAYPKDDEIEQLSTVLNLPTRVIVVWFQNARQKARK,-0.29 ± 0.13
12,SSRTRFTDYQLRVLQYFFDTNAYPKDDEIEQLSTVLNLPTRVIVVWFQNARQKARK,-0.458 ± 0.22
13,SSRTRFTDYQLRVLQPFFDTNAYPKDDEIEQLSTVLNLPTRVIVVWFQNARQKARK,-0.357 ± 0.14
14,SSRTRFTDYQLRVLQHFFDTNAYPKDDEIEQLSTVLNLPTRVIVVWFQNARQKARK,-0.193 ± 0.17
15,SSRTRFTDYQLRVLQAFFDTNAYPKDDEIEQLSTVLNLPTRVIVVWFQNARQKARK,-0.065 ± 0.12
16,SSRTRFTDYQLRVLQEFFDTNAYPKDDEIEQLSTVLNLPTRVIVVWFQNARQKARK,0.014 ± 0.11
17,SSRTRFTDYQLRVLQCFFDTNAYPKDDEIEQLSTVLNLPTRVIVVWFQNARQKARK,-0.32 ± 0.16
18,SSRTRFTDYQLRVLQQFFDTNAYPKDDEIEQLSTVLNLPTRVIVVWFQNARQKARK,0.027 ± 0.12
19,SSRTRFTDYQLRVLQKFFDTNAYPKDDEIEQLSTVLNLPTRVIVVWFQNARQKARK,-0.108 ± 0.15
20,SSRTRFTDYQLRVLQDFDDTNAYPKDDEIEQLSTVLNLPTRVIVVWFQNARQKARK,-0.887 ± 0.15
21,SSRTRFTDYQLRVLQDFADTNAYPKDDEIEQLSTVLNLPTRVIVVWFQNARQKARK,-0.117 ± 0.082
22,SSRTRFTDYQLRVLQDFGDTNAYPKDDEIEQLSTVLNLPTRVIVVWFQNARQKARK,-0.711 ± 0.12
23,SSRTRFTDYQLRVLQDFCDTNAYPKDDEIEQLSTVLNLPTRVIVVWFQNARQKARK,-0.139 ± 0.097
24,SSRTRFTDYQLRVLQDFEDTNAYPKDDEIEQLSTVLNLPTRVIVVWFQNARQKARK,-0.486 ± 0.15

row,Variant,abundance fitness
1,SSRTRFTDYQLRMLQDFFDTNAYPKDDEIEQLSTVLNLPTRVIVVWFQNARQKARK,0.44 ± 0.18
2,SSRTRFTDYQLRNLQDFFDTNAYPKDDEIEQLSTVLNLPTRVIVVWFQNARQKARK,-0.064 ± 0.2
3,SSRTRFTDYQLRPLQDFFDTNAYPKDDEIEQLSTVLNLPTRVIVVWFQNARQKARK,-1.02 ± 0.31
4,SSRTRFTDYQLRQLQDFFDTNAYPKDDEIEQLSTVLNLPTRVIVVWFQNARQKARK,0.057 ± 0.21
5,SSRTRFTDYQLRRLQDFFDTNAYPKDDEIEQLSTVLNLPTRVIVVWFQNARQKARK,0.079 ± 0.22
6,SSRTRFTDYQLRTLQDFFDTNAYPKDDEIEQLSTVLNLPTRVIVVWFQNARQKARK,0.013 ± 0.13
7,SSRTRFTDYQLRSLQDFFDTNAYPKDDEIEQLSTVLNLPTRVIVVWFQNARQKARK,-0.068 ± 0.11
8,SSRTRFTDYQLRWLQDFFDTNAYPKDDEIEQLSTVLNLPTRVIVVWFQNARQKARK,-0.377 ± 0.36
9,SSRTRFTDYQLRCLQDFFDTNAYPKDDEIEQLSTVLNLPTRVIVVWFQNARQKARK,-0.181 ± 0.23
10,SSRTRFTDYQLRDLQDFFDTNAYPKDDEIEQLSTVLNLPTRVIVVWFQNARQKARK,0.079 ± 0.5
11,SSRTRFTDYQLRYLQDFFDTNAYPKDDEIEQLSTVLNLPTRVIVVWFQNARQKARK,0.092 ± 0.14
12,SSRTRFTDYQLRFLQDFFDTNAYPKDDEIEQLSTVLNLPTRVIVVWFQNARQKARK,-0.056 ± 0.14
13,SSRTRFTDYQLRALQDFFDTNAYPKDDEIEQLSTVLNLPTRVIVVWFQNARQKARK,-0.012 ± 0.2
14,SSRTRFTDYQLRGLQDFFDTNAYPKDDEIEQLSTVLNLPTRVIVVWFQNARQKARK,0.047 ± 0.22
15,SSRTRFTDYQLRILQDFFDTNAYPKDDEIEQLSTVLNLPTRVIVVWFQNARQKARK,-0.001 ± 0.13
16,SSRTRFTDYQLRHLQDFFDTNAYPKDDEIEQLSTVLNLPTRVIVVWFQNARQKARK,0.203 ± 0.14
17,SSRTRFTDYQLRVLPDFFDTNAYPKDDEIEQLSTVLNLPTRVIVVWFQNARQKARK,-0.708 ± 0.14
18,SSRTRFTDYQLRVLWDFFDTNAYPKDDEIEQLSTVLNLPTRVIVVWFQNARQKARK,-0.333 ± 0.098
19,SSRTRFTDYQLRVLYDFFDTNAYPKDDEIEQLSTVLNLPTRVIVVWFQNARQKARK,-0.27 ± 0.18
20,SSRTRFTDYQLRVLFDFFDTNAYPKDDEIEQLSTVLNLPTRVIVVWFQNARQKARK,-0.186 ± 0.15
21,SSRTRFTDYQLRVLNDFFDTNAYPKDDEIEQLSTVLNLPTRVIVVWFQNARQKARK,-0.158 ± 0.26
22,SSRTRFTDYQLRVLEDFFDTNAYPKDDEIEQLSTVLNLPTRVIVVWFQNARQKARK,-0.139 ± 0.12
23,SSRTRFTDYQLRVLVDFFDTNAYPKDDEIEQLSTVLNLPTRVIVVWFQNARQKARK,-0.095 ± 0.082
24,SSRTRFTDYQLRVLADFFDTNAYPKDDEIEQLSTVLNLPTRVIVVWFQNARQKARK,-0.05 ± 0.082

row,Variant,abundance fitness
1,SSRTRFTDYQLRVLIDFFDTNAYPKDDEIEQLSTVLNLPTRVIVVWFQNARQKARK,-0.141 ± 0.13
2,SSRTRFTDYQLRVLTDFFDTNAYPKDDEIEQLSTVLNLPTRVIVVWFQNARQKARK,-0.069 ± 0.11
3,SSRTRFTDYQLRVLGDFFDTNAYPKDDEIEQLSTVLNLPTRVIVVWFQNARQKARK,-0.102 ± 0.082
4,SSRTRFTDYQLRVLMDFFDTNAYPKDDEIEQLSTVLNLPTRVIVVWFQNARQKARK,0.058 ± 0.15
5,SSRTRFTDYQLRVLDDFFDTNAYPKDDEIEQLSTVLNLPTRVIVVWFQNARQKARK,-0.072 ± 0.12
6,SSRTRFTDYQLRVLLDFFDTNAYPKDDEIEQLSTVLNLPTRVIVVWFQNARQKARK,-0.036 ± 0.083
7,SSRTRFTDYQLRVLSDFFDTNAYPKDDEIEQLSTVLNLPTRVIVVWFQNARQKARK,-0.004 ± 0.087
8,SSRTRFTDYQLRVLRDFFDTNAYPKDDEIEQLSTVLNLPTRVIVVWFQNARQKARK,-0.107 ± 0.082
9,SSRTRFTDYQLQVLQDFFDTNAYPKDDEIEQLSTVLNLPTRVIVVWFQNARQKARK,-0.014 ± 0.15
10,SSRTRFTDYQLVVLQDFFDTNAYPKDDEIEQLSTVLNLPTRVIVVWFQNARQKARK,-0.544 ± 0.1
11,SSRTRFTDYQLSVLQDFFDTNAYPKDDEIEQLSTVLNLPTRVIVVWFQNARQKARK,-0.203 ± 0.089
12,SSRTRFTDYQLYVLQDFFDTNAYPKDDEIEQLSTVLNLPTRVIVVWFQNARQKARK,-0.702 ± 0.18
13,SSRTRFTDYQLTVLQDFFDTNAYPKDDEIEQLSTVLNLPTRVIVVWFQNARQKARK,-0.066 ± 0.12
14,SSRTRFTDYQLRVEQDFFDTNAYPKDDEIEQLSTVLNLPTRVIVVWFQNARQKARK,-1.07 ± 0.14
15,SSRTRFTDYQLRVSQDFFDTNAYPKDDEIEQLSTVLNLPTRVIVVWFQNARQKARK,-0.731 ± 0.12
16,SSRTRFTDYQLRVMQDFFDTNAYPKDDEIEQLSTVLNLPTRVIVVWFQNARQKARK,0.049 ± 0.13
17,SSRTRFTDYQLRVGQDFFDTNAYPKDDEIEQLSTVLNLPTRVIVVWFQNARQKARK,-0.876 ± 0.078
18,SSRTRFTDYQLRVFQDFFDTNAYPKDDEIEQLSTVLNLPTRVIVVWFQNARQKARK,-0.433 ± 0.17
19,SSRTRFTDYQLRVCQDFFDTNAYPKDDEIEQLSTVLNLPTRVIVVWFQNARQKARK,-0.181 ± 0.11
20,SSRTRFTDYQLRVNQDFFDTNAYPKDDEIEQLSTVLNLPTRVIVVWFQNARQKARK,-1.15 ± 0.25
21,SSRTRFTDYQLRVAQDFFDTNAYPKDDEIEQLSTVLNLPTRVIVVWFQNARQKARK,-0.793 ± 0.1
22,SSRTRFTDYQLRVRQDFFDTNAYPKDDEIEQLSTVLNLPTRVIVVWFQNARQKARK,-0.911 ± 0.092
23,SSRTRFTDYQLRVIQDFFDTNAYPKDDEIEQLSTVLNLPTRVIVVWFQNARQKARK,-0.184 ± 0.14
24,SSRTRFTDYQLRVTQDFFDTNAYPKDDEIEQLSTVLNLPTRVIVVWFQNARQKARK,-0.93 ± 0.16

row,Variant,abundance fitness
1,SSRTRFTDYQLRVYQDFFDTNAYPKDDEIEQLSTVLNLPTRVIVVWFQNARQKARK,-1.08 ± 0.33
2,SSRTRFTDYQLRVQQDFFDTNAYPKDDEIEQLSTVLNLPTRVIVVWFQNARQKARK,-1.02 ± 0.27
3,SSRTRFTDYQLRVPQDFFDTNAYPKDDEIEQLSTVLNLPTRVIVVWFQNARQKARK,-0.931 ± 0.15
4,SSRTRFTDYQLRVVQDFFDTNAYPKDDEIEQLSTVLNLPTRVIVVWFQNARQKARK,-0.206 ± 0.077
5,SSRTRFTDYQLRVWQDFFDTNAYPKDDEIEQLSTVLNLPTRVIVVWFQNARQKARK,-0.895 ± 0.14
6,SSRTRFTDYQLRVLQDMFDTNAYPKDDEIEQLSTVLNLPTRVIVVWFQNARQKARK,-0.004 ± 0.12
7,SSRTRFTDYQLRVLQDHFDTNAYPKDDEIEQLSTVLNLPTRVIVVWFQNARQKARK,0.079 ± 0.14
8,SSRTRFTDYQLRVLQDEFDTNAYPKDDEIEQLSTVLNLPTRVIVVWFQNARQKARK,-0.252 ± 0.12
9,SSRTRFTDYQLRVLQDLFDTNAYPKDDEIEQLSTVLNLPTRVIVVWFQNARQKARK,-0.12 ± 0.09
10,SSRTRFTDYQLRVLQDKFDTNAYPKDDEIEQLSTVLNLPTRVIVVWFQNARQKARK,-0.094 ± 0.1
11,SSRTRFTDYQLRVLQDSFDTNAYPKDDEIEQLSTVLNLPTRVIVVWFQNARQKARK,-0.097 ± 0.1
12,SSRTRFTDYQLRVLQDRFDTNAYPKDDEIEQLSTVLNLPTRVIVVWFQNARQKARK,0.02 ± 0.078
13,SSRTRFTDYQLRVLQDPFDTNAYPKDDEIEQLSTVLNLPTRVIVVWFQNARQKARK,-1 ± 0.18
14,SSRTRFTDYQLRVLQDYFDTNAYPKDDEIEQLSTVLNLPTRVIVVWFQNARQKARK,-0.196 ± 0.17
15,SSRTRFTDYQLRVLQDNFDTNAYPKDDEIEQLSTVLNLPTRVIVVWFQNARQKARK,0.049 ± 0.15
16,SSRTRFTDYQLRVLQDGFDTNAYPKDDEIEQLSTVLNLPTRVIVVWFQNARQKARK,-0.243 ± 0.082
17,SSRTRFTDYQLRVLQDVFDTNAYPKDDEIEQLSTVLNLPTRVIVVWFQNARQKARK,-0.25 ± 0.09
18,SSRTRFTDYQLRVLQDAFDTNAYPKDDEIEQLSTVLNLPTRVIVVWFQNARQKARK,-0.006 ± 0.097
19,SSRTRFTDYQLRVLQDIFDTNAYPKDDEIEQLSTVLNLPTRVIVVWFQNARQKARK,-0.135 ± 0.18
20,SSRTRFTDYQLRVLQDTFDTNAYPKDDEIEQLSTVLNLPTRVIVVWFQNARQKARK,-0.086 ± 0.11
21,SSRTRFTDYQLRVLQDDFDTNAYPKDDEIEQLSTVLNLPTRVIVVWFQNARQKARK,-0.591 ± 0.19
22,SSRTRFTDYQLRVLQDQFDTNAYPKDDEIEQLSTVLNLPTRVIVVWFQNARQKARK,0.051 ± 0.11
